The source of these data is US20240116985A1 (published 2024).

The chains are these.
B1: I-535 (peptide)
peptide: Ac-[αAllylPro]DA[B5(21)][(NHiPr)AsnR]DAAFV[S8]F[Bta]Q-NH2
modifications: staple 1-4, 4-11
notes: Stapled peptide composition; also called Ac-PL3-Asp-Ala-B5-[NHiPr]AsnR-Asp-Ala-Ala-Phe-Val-S8-Phe-BztA-Gln-NH2
B2: I-512 (peptide)
peptide: Ac-[αAllylPro]DI[B5(20)]DEAAFN[S8][Phe(2-OMe)][Bta]H-NH2
modifications: staple 1-4, 4-11
notes: Stapled peptide composition; also called Ac-PL3-Asp-Ile-B5-Asp-Glu-Ala-Ala-Phe-Asn-S8-2OMeF-BztA-His-NH2
B3: I-514 (peptide)
peptide: Ac-[αAllylPro]DI[B5(20)]DEAAFN[S8][Phe(2-CONH2)][Bta]H-NH2
modifications: staple 1-4, 4-11
notes: Stapled peptide composition; also called Ac-PL3-Asp-Ile-B5-Asp-Glu-Ala-Ala-Phe-Asn-S8-2CBMF-BztA-His-NH2
B4: I-536 (peptide)
peptide: Ac-[αAllylPro]DA[B5(21)][(NHEt)AsnR]DAAFV[S8]F[Bta]Q-NH2
modifications: staple 1-4, 4-11
notes: Stapled peptide composition; also called Ac-PL3-Asp-Ala-B5-[NHEt]AsnR-Asp-Ala-Ala-Phe-Val-S8-Phe-BztA-Gln-NH2
B5: I-513 (peptide)
peptide: Ac-[αAllylPro]DA[B5(20)]DEAAFN[S8][Phe(2-CONH2)][Bta]H-NH2
modifications: staple 1-4, 4-11
notes: Stapled peptide composition; also called Ac-PL3-Asp-Ala-B5-Asp-Glu-Ala-Ala-Phe-Asn-S8-2CBMF-BztA-His-NH2
B6: I-506 (peptide)
peptide: Ac-[αAllylPro]DL[B5(6)]DEAAFQ[S8]F[Bta]H-NH2
modifications: staple 1-4, 4-11
notes: Stapled peptide composition; also called Ac-PL3-Asp-Leu-B5-Asp-Glu-Ala-Ala-Phe-Gln-S8-Phe-BztA-His-NH2
B7: I-507 (peptide)
peptide: XDAXDEAAFQXFXT
modifications: not fully specified; N-terminal acetyl (Ac); PL3 at X1, B5 at X4 and S8 at X11 stapled (PL3-B5 and B5-S8, olefin metathesis); BztA at X13; C-terminal amide (NH2)
notes: Stapled peptide composition; also called Ac-PL3-Asp-Ala-B5-Asp-Glu-Ala-Ala-Phe-Gln-S8-Phe-BztA-Thr-NH2
B8: I-527 (peptide)
peptide: XDIXDEAAFQXFXQ
modifications: not fully specified; N-terminal acetyl (Ac); PL3 at X1, B5 at X4 and S8 at X11 stapled (PL3-B5 and B5-S8, olefin metathesis); 2OMeF at X12; BztA at X13; C-terminal amide (NH2)
notes: Stapled peptide composition; also called Ac-PL3-Asp-Ile-B5-Asp-Glu-Ala-Ala-Phe-Gln-S8-2OMeF-BztA-Gln-NH2
B9: I-528 (peptide)
peptide: XDIXDEAAFQXFXQ
modifications: not fully specified; N-terminal acetyl (Ac); PL3 at X1, B5 at X4 and S8 at X11 stapled (PL3-B5 and B5-S8, olefin metathesis); 2OMeF at X12; BztA at X13; C-terminal amide (NH2)
notes: as for B8
B10: I-508 (peptide)
peptide: XDAXDEAAFQXFXT
modifications: not fully specified; N-terminal acetyl (Ac); PL3 at X1, B5 at X4 and S8 at X11 stapled (PL3-B5 and B5-S8, olefin metathesis); BztA at X13; C-terminal amide (NH2)
notes: as for B7
B11: I-1725 (peptide)
peptide: Ac-[αAllylPro]D[tBuAla][B5]D[TfeGA]AAFL[PyrS2][Phe(2-Me)][Bta]Q-NH2
modifications: staple 1-4, 4-11
B12: I-1724 (peptide)
peptide: Ac-[αAllylPro][(EtSSpy)AspE][tBuAla][B5]DDAAFN[PyrS2][Phe(2-Cl)][Bta]Q-NH2
modifications: staple 1-4, 4-11; not fully specified
B13: I-1722 (peptide)
peptide: Ac-[αAllylPro][AspSH][tBuAla][B5]DDAAFN[PyrS2][Phe(2-Cl)][Bta]Q-NH2
modifications: staple 1-4, 4-11; not fully specified
B14: I-1729 (peptide)
peptide: Ac-[αAllylPro]D[tBuAla][B5]D[(Ac)GA]AAFL[PyrS2][3Thi][Bta]Q-NH2
modifications: staple 1-4, 4-11
B15: I-1731 (peptide)
peptide: Ac-[αAllylPro]D[tBuAla][B5]D[GA]AAFL[PyrS2][3Thi][Bta]Q-NH2
modifications: staple 1-4, 4-11

Starred links: 1 amine or outer side, 2 acyl side, 3 side chain; linkers in the order of their positions; H or OH if unused. Positions of bridges follow the written chain, without caps; N, C: chain ends. Non-standard residues stand in square brackets, D forms with d. Primed or numbered codes have the meaning given here. B5(20) = 2-amino-2-(pent-4-en-1-yl)hept-6-enoic acid = bis(4-pentenyl)glycine, stitching residue, C=CCCCC(CCCC=C)(N[*:1])C(=O)[*:2]; B5(21) = 2-amino-2-(pent-4-en-1-yl)hept-6-enoic acid, bis(4-pentenyl)glycine (stitching residue), C=CCCCC(CCCC=C)(N[*:1])C(=O)[*:2]; B5(6) = 2-amino-2-(pent-4-en-1-yl)hept-6-enoic acid (bis(4-pentenyl)glycine), stitching residue, C=CCCCC(CCCC=C)(N[*:1])C(=O)[*:2]; TfeGA = (S)-2-amino-3-((carboxymethyl)(2,2,2-trifluoroethyl)amino)propanoic acid, O=C([C@H](CN(CC(=O)[*:3])CC(F)(F)F)N[*:1])[*:2]; (EtSSpy)AspE = (S)-2-amino-4-oxo-4-(2-(pyridin-2-yldisulfaneyl)ethoxy)butanoic acid, O=C(C[C@H](N[*:1])C(=O)[*:2])OCCSSc1ccccn1; PyrS2 = (S)-3-amino-1-((pent-4-en-1-yloxy)carbonyl)pyrrolidine-3-carboxylic acid, C=CCCCOC(=O)N1CC[C@@](N[*:1])(C(=O)[*:2])C1; (Ac)GA = (S)-2-amino-3-(N-(carboxymethyl)acetamido)propanoic acid, CC(=O)N(CC(=O)[*:3])C[C@H](N[*:1])C(=O)[*:2]; GA = (S)-2-amino-3-((carboxymethyl)amino)propanoic acid, O=C([C@H](CNCC(=O)[*:3])N[*:1])[*:2]; AspSH = (S)-2-amino-4-mercapto-4-oxobutanoic acid, O=C(C[C@H](N[*:1])C(=O)[*:2])S[*:3]; B5 = 2-amino-2-(pent-4-en-1-yl)hept-6-enoic acid, C=CCCCC(CCCC=C)(N[*:1])C(=O)[*:2]; (NHiPr)AsnR = N4-isopropyl-L-asparagine, CC(C)NC(=O)C[C@H](N[*:1])C(=O)[*:2]; (NHEt)AsnR = N4-ethyl-L-asparagine, CCNC(=O)C[C@H](N[*:1])C(=O)[*:2]; Phe(2-CONH2) = NC(=O)c1ccccc1C[C@H](N)C(=O)O; Phe(2-Cl) = N[C@@H](Cc1ccccc1Cl)C(=O)O; Phe(2-OMe) = COc1ccccc1C[C@H](N)C(=O)O; Phe(2-Me) = Cc1ccccc1C[C@H](N)C(=O)O; Bta = N[C@@H](Cc1csc2ccccc12)C(=O)O; αAllylPro = C=CC[C@@]1(C(=O)O)CCCN1; tBuAla = CC(C)(C)C[C@H](N)C(=O)O; 3Thi = N[C@@H](Cc1ccsc1)C(=O)O; S8 = C=CCCCCCC[C@](C)(N)C(=O)O Bounds are passed on as bounds.

The first experiment has as its target T1, full-length beta-Catenin (Uniprot ID P35222) (Homo sapiens (Human), UniProt P35222 1-781).
T1 construct: also called bCat; B-Catenin
T1 sequence: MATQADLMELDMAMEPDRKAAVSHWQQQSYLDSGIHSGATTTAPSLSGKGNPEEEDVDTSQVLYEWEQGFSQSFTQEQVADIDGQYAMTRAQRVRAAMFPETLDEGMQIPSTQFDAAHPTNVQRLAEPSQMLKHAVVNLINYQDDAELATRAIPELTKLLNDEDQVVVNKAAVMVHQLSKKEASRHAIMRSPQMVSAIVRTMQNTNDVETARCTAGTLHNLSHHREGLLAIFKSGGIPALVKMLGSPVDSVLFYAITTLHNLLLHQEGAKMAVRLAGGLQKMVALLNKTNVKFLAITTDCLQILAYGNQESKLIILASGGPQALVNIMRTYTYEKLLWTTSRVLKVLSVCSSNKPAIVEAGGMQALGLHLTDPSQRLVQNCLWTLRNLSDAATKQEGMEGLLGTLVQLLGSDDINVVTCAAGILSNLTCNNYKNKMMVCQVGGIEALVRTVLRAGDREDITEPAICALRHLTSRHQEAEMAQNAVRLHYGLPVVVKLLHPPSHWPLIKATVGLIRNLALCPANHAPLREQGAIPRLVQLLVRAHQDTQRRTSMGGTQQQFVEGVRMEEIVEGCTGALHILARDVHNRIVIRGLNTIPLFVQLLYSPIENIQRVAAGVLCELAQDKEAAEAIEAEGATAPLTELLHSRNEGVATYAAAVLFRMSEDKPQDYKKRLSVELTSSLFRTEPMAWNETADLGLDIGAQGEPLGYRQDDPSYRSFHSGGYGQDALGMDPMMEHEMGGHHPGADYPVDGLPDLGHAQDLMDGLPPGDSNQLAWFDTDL
Briefly: fluorescence polarization competition; 10 nM full-length beta-catenin + 10 nM 5FAM-TCF4(10-53) probe. The procedure: The plate was incubated protected from light for 60 minutes at 20° C. prior to read. Reads were performed on a CLARIOstar plate reader (BMG Labtech) in duplicate, and data were fitted to a 1:1 binding model with hill slope using an in-house script. All provided concentrations are final concentrations.
For orientation: In fluorescence polarisation assays a small probe gives low polarisation when free and higher when bound to something large.
On to B1, for which the EC50 is 5000 nM.
As for B2, the EC50 amounted to 20 nM.
As to B3, the EC50 stood at 30 nM.
On to B4, for which the EC50 was 4470 nM.
On the same count and under the same terms, to B5 belongs 143 nM; to B6, 25 nM; to B7, 192 nM.
Still for that read-out and setting: then B8, with 98 nM; and B9, with 63 nM; and B10, with 73 nM.

In a further experiment the target is T2, B-cat-Halo (beta-catenin HaloTag fusion expressed in HEK293 cells) (UniProt P35222 1-781).
T2 sequence (looked up): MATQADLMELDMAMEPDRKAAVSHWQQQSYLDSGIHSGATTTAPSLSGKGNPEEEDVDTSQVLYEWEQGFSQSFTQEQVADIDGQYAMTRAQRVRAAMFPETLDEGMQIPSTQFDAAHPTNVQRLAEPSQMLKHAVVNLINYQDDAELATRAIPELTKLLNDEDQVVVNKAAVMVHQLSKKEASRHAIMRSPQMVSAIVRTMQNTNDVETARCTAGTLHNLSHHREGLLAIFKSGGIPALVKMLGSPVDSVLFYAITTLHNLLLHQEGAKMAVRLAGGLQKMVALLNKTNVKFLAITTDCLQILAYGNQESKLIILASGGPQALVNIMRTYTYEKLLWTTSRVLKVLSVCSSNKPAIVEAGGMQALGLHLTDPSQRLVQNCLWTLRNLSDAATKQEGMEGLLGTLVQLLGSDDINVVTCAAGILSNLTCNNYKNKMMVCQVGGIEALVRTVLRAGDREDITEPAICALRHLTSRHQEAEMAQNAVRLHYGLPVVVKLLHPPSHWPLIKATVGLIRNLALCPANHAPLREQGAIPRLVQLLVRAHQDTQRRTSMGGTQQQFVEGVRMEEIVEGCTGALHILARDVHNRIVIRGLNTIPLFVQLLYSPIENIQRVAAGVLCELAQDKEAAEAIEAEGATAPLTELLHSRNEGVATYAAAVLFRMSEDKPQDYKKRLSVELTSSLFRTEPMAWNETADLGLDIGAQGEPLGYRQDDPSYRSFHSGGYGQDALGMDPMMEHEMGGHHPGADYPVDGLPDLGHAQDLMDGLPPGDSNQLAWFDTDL
Briefly: cell-based or functional assay.
In the case of B11, the “NanoBRET Abs IC50” value is 10 µM.
With B12, the “NanoBRET Abs IC50” value stood at 29.7 µM.
Take B13: the “NanoBRET Abs IC50” value is over 20 µM.
For B14, the “NanoBRET Abs IC50” value is 23 µM.
Turning to B15, the “NanoBRET Abs IC50” value stood at 29.5 µM.

As usually defined, the EC50 is the concentration giving half of the maximal effect.
